From PMC8885668, “A high-performance electrochemical aptasensor based on graphene-decorated rhodium nanoparticles to detect HER2-ECD oncomarker in liquid biopsy”

Molecular target: HER2-ECD (recombinant human HER2/ErbB2/CD340) (human, UniProt P04626 23-652)
Experiment: electrochemical aptasensor (DPV); Rh-NPs/rGONs graphite electrode; linear 10-500 ng/mL; LOD 0.665 ng/mL (0.667 in abstract), not a Kd; DPV in 0.1 M PBS pH 7.4, 5.0 mM K4[Fe(CN)6]/K3[Fe(CN)6] (1:1), 0.1 M KCl; 50 nM aptamer immobilized; 40 min protein incubation; BSA-blocked; binding temperature not stated
Conditions: protein: commercial; predicted double stem-loop; text also claims G-quadruplex

B1: anti-HER2 aptamer (ssDNA)
DNA: GGGCCGTCGAACACGAGCATGGTGCGTGGACCTAGGATGACCTGAGTACTGTCC
modifications: 5' NH2-(CH2)6, amide-coupled to MPA on electrode
binding result: binds
